± gives the uncertainty stated by the source.

The values that follow come from the supplement of paper PMC7877785.

This series is described as follows: self-splicing fitness, log relative to wild type (ln ratio); higher = more splicing; Tetrahymena group I intron in knt gene, E. coli kanamycin selection, DiMSum; sequences stand for … in CUCUCU…GGAGGGAAAAGUUAUCAGGCAUGCACCUGGUAGCUAGUCUUUAAACCAAUAGAUUGCAUCGGUUUAAAAGGCAAGACCGUCAAAUUGCGGGAAAGGGGUCAACAGCCGUUCAGUACCAAGUCUCAGGGGAAACUUUGAGAUGGCCUUGCAAAGGGUAUGGUAAUAAGCUGACGGACAUGGUCCUAACCACGCAGCCAAGUCCUAAGUCAACAGAUCUUCUGUUGAUAUGGAUGCAGUUCACAGACUAAAUGUCGGUCGGGGAAGAUGUAUUCUUCUCAUAAGAUAUAGUCGGACCUCUCCUUAAUGGGAGCUAGCGGAUGAAGUGAUGCAACACUGGAGCCGCUGGGAACUAAUUUGUAUGCGAAAGUAUAUUGAUUAGUUUUGGAGUACUCGUGGUCG
An outline of the steps:
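Fitness was computed with DiMSum as the error-weighted combination of replicate fold changes, kanamycin versus none, each normalised to wild type. The library randomised all eight intron nucleotides of the P1ex region, with the intron placed in the knt kanamycin-resistance gene on pET-22b(+) in E. coli BL21(DE3). Six replicate transformations were grown overnight at 37°C or 30°C on LB agar with or without 25 μg/mL kanamycin, plus 100 μg/mL carbenicillin, 50 μM IPTG and 0.2% rhamnose. Pooled colonies were amplicon-sequenced on an Illumina HiSeq 2500.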

In the case of CAGAAGCAAUAUUACGUGUG, the “self-splicing fitness (ln)” value is -3.01 ± 0.074 (30 °C) and -2.19 ± 0.082 (37 °C). The matching figures for CAGUAGCAAUAUUACGCCGU: -2.93 ± 0.36 and -0.37 ± 0.19. With GUCAAGCAAUAUUACGCGUG, the “self-splicing fitness (ln)” value is, setting by setting: (30 °C) -2.92 ± 0.16; (37 °C) -1.78 ± 0.16.

In the case of AACAAGCAAUAUUACGCUGG, the “self-splicing fitness (ln)” value is -2.25 ± 0.081 (30 °C) and -1.04 ± 0.1 (37 °C). With GCCGAGCAAUAUUACGUCAA, the “self-splicing fitness (ln)” value (37 °C) was -2.36 ± 0.33.

In the case of CUGCAGCAAUAUUACGAUCA, the “self-splicing fitness (ln)” value reads like this: (30 °C) -3.57 ± 0.29; (37 °C) -2.5 ± 0.2.

For the sequence UCCCAGCAAUAUUACGUGAA, the “self-splicing fitness (ln)” value by setting is: (30 °C) 0.116 ± 0.045; (37 °C) 0.582 ± 0.067.

For CAAGAGCAAUAUUACGAUCU, the “self-splicing fitness (ln)” value (37 °C) was -1.79 ± 0.31.

In the case of ACUGAGCAAUAUUACGCGGC, the “self-splicing fitness (ln)” value runs as follows: (30 °C) -3.69 ± 0.4; (37 °C) -2.28 ± 0.28. On to GUGAAGCAAUAUUACGCCAC, for which, under “30 °C”, the “self-splicing fitness (ln)” value is -2.66 ± 0.5. On to GCCAAGCAAUAUUACGGCGC, for which the “self-splicing fitness (ln)” value runs as follows: (30 °C) -1.36 ± 0.11; (37 °C) -0.697 ± 0.15. The matching figures for GCGCAGCAAUAUUACGCAGU: -2.63 ± 0.31 and -1.04 ± 0.29. On the same counts, the results for GUCGAGCAAUAUUACGGGAC are -3.05 ± 0.22 and -2.05 ± 0.21.

As for UGUAAGCAAUAUUACGCCUA, the “self-splicing fitness (ln)” value (30 °C) is -0.337 ± 0.14 and the “self-splicing fitness (ln)” value (37 °C) stood at 0.331 ± 0.15. The matching figures for CGUUAGCAAUAUUACGAUGA: -1.79 ± 0.13 and -0.842 ± 0.13. In the case of ACUUAGCAAUAUUACGUUCA, the “self-splicing fitness (ln)” value runs as follows: (30 °C) -0.344 ± 0.19; (37 °C) -0.694 ± 0.2. With UAGCAGCAAUAUUACGUUCG, the “self-splicing fitness (ln)” value by setting is: (30 °C) -0.326 ± 0.069; (37 °C) 0.165 ± 0.091. The matching figures for GCAGAGCAAUAUUACGUUCA: -2.06 ± 0.13 and -0.713 ± 0.1.

Turning to CCAAAGCAAUAUUACGGGUU, the “self-splicing fitness (ln)” value was -2.96 ± 0.15 (30 °C) and -2.5 ± 0.16 (37 °C). Consider AAGAAGCAAUAUUACGACGA, for which the “self-splicing fitness (ln)” value by setting is: (30 °C) -0.362 ± 0.093; (37 °C) -0.274 ± 0.099.

Consider GGAAAGCAAUAUUACGUAGC, for which the “self-splicing fitness (ln)” value by setting is: (30 °C) -2.63 ± 0.22; (37 °C) -2.34 ± 0.23. On the same counts, the results for AUUAAGCAAUAUUACGAUGU are -0.608 ± 0.07 and -0.0076 ± 0.084. On the same counts, the results for UCCCAGCAAUAUUACGUGGC are -3.54 ± 0.15 and -2.92 ± 0.23. On the same counts, the results for GUUAAGCAAUAUUACGUAGG are -1.73 ± 0.1 and -1.16 ± 0.17. In the case of ACCGAGCAAUAUUACGUCCU, the “self-splicing fitness (ln)” value was -1.71 ± 0.1 (30 °C) and -0.0861 ± 0.11 (37 °C). The matching figures for GCAUAGCAAUAUUACGCAGU: -4.08 ± 0.17 and -1.81 ± 0.12. On the same counts, the results for CCAUAGCAAUAUUACGCAUG are -3.37 ± 0.19 and -0.732 ± 0.13. AAAGAGCAAUAUUACGACCU: the “self-splicing fitness (ln)” value is -1.39 ± 0.15 (30 °C) and -0.748 ± 0.16 (37 °C). The matching figures for UACUAGCAAUAUUACGUUUG: -3.28 ± 0.18 and -2.21 ± 0.29. The matching figures for CCCCAGCAAUAUUACGAACC: -4.18 ± 0.34 and -2.46 ± 0.36. Take UGCUAGCAAUAUUACGAAGA: where the note is “37 °C”, the “self-splicing fitness (ln)” value was -2.09 ± 0.2.

As to GCCUAGCAAUAUUACGUAAC, the “self-splicing fitness (ln)” value is -0.911 ± 0.17 (30 °C) and -0.248 ± 0.2 (37 °C).

Take ACAGAGCAAUAUUACGACGU: the “self-splicing fitness (ln)” value was -1.31 ± 0.091 (30 °C) and -0.557 ± 0.11 (37 °C). The matching figures for AGUUAGCAAUAUUACGCGUG: -2.38 ± 0.2 and -0.946 ± 0.17. As for UCGCAGCAAUAUUACGUAAU, the “self-splicing fitness (ln)” value reads like this: (30 °C) -3.39 ± 0.15; (37 °C) -2.19 ± 0.21. The matching figures for UACGAGCAAUAUUACGACCU: -2.35 ± 0.27 and -1.82 ± 0.5. On the same counts, the results for ACCGAGCAAUAUUACGGCGU are -0.733 ± 0.082 and -0.172 ± 0.11. The matching figures for UCCAAGCAAUAUUACGGCAA: -0.817 ± 0.095 and -0.0878 ± 0.095. Turning to AAAGAGCAAUAUUACGCCUG, the “self-splicing fitness (ln)” value was -2.57 ± 0.28 (30 °C) and -1.76 ± 0.33 (37 °C). The matching figures for UUCUAGCAAUAUUACGUAAC: -3.19 ± 0.33 and -1.32 ± 0.27.

In the case of CUACAGCAAUAUUACGCCAC, the “self-splicing fitness (ln)” value (30 °C) was -3.68 ± 0.33. Turning to AUUUAGCAAUAUUACGCUCU, the “self-splicing fitness (ln)” value reads like this: (30 °C) 0.51 ± 0.27; (37 °C) 0.235 ± 0.44. The matching figures for UGUCAGCAAUAUUACGUUUG: -1.26 ± 0.061 and 0.085 ± 0.095. The matching figures for UAUAAGCAAUAUUACGGGAG: -2.07 ± 0.11 and -1.64 ± 0.12. On the same counts, the results for GUGAAGCAAUAUUACGCCUU are -0.0499 ± 0.15 and -0.45 ± 0.17. With UACGAGCAAUAUUACGUUUA, the “self-splicing fitness (ln)” value is -2.32 ± 0.12 (30 °C) and -1.79 ± 0.12 (37 °C). On the same counts, the results for AUUGAGCAAUAUUACGUUAU are -2.61 ± 0.2 and -1.86 ± 0.24. On the same counts, the results for AAAGAGCAAUAUUACGCUCC are -2.57 ± 0.3 and -2 ± 0.41.

As for CUACAGCAAUAUUACGACGG, the “self-splicing fitness (ln)” value reads like this: (30 °C) -0.839 ± 0.063; (37 °C) -0.265 ± 0.095. The matching figures for UCACAGCAAUAUUACGGUCU: -1.01 ± 0.081 and -1.67 ± 0.11. On to CGUUAGCAAUAUUACGGAGU, for which the “self-splicing fitness (ln)” value (30 °C) is -4.73 ± 0.31 and the “self-splicing fitness (ln)” value (37 °C) was -3.23 ± 0.26. On the same counts, the results for UCGGAGCAAUAUUACGGUAA are -3.18 ± 0.21 and -1.68 ± 0.23. As for AGAAAGCAAUAUUACGUAGA, the “self-splicing fitness (ln)” value is -1.52 ± 0.12 (30 °C) and -1.52 ± 0.14 (37 °C). As to CGUCAGCAAUAUUACGUAAG, the “self-splicing fitness (ln)” value reads like this: (30 °C) 0.214 ± 0.054; (37 °C) 0.2 ± 0.07. With ACGUAGCAAUAUUACGCACC, the “self-splicing fitness (ln)” value by setting is: (30 °C) -1.18 ± 0.11; (37 °C) -0.224 ± 0.16. The matching figures for AGAUAGCAAUAUUACGUUUU: -2.35 ± 0.09 and -1.68 ± 0.1. The matching figures for GUGCAGCAAUAUUACGCCUC: -0.807 ± 0.17 and 0.123 ± 0.21.

Turning to CAGCAGCAAUAUUACGUUGC, the “self-splicing fitness (ln)” value is, setting by setting: (30 °C) -2.61 ± 0.27; (37 °C) -2.11 ± 0.2. The matching figures for GUUUAGCAAUAUUACGCUCU: -0.694 ± 0.091 and -0.764 ± 0.11. On the same counts, the results for CACGAGCAAUAUUACGACUG are -2.46 ± 0.1 and -0.773 ± 0.12.

Regarding AGCAAGCAAUAUUACGGAGC, the “self-splicing fitness (ln)” value is, setting by setting: (30 °C) -2.67 ± 0.19; (37 °C) -1.31 ± 0.24. The matching figures for AAUAAGCAAUAUUACGUUAC: -3.62 ± 0.18 and -1.39 ± 0.14. Regarding CUACAGCAAUAUUACGCAAU, the “self-splicing fitness (ln)” value was -3.8 ± 0.4 (30 °C) and -2.86 ± 0.4 (37 °C). The matching figures for CUGCAGCAAUAUUACGCCCG: -0.269 ± 0.098 and 0.148 ± 0.13. Take AAGUAGCAAUAUUACGUCUC: the “self-splicing fitness (ln)” value (30 °C) was -1.59 ± 0.12 and the “self-splicing fitness (ln)” value (37 °C) is -0.405 ± 0.14. As for ACACAGCAAUAUUACGAAUU, the “self-splicing fitness (ln)” value runs as follows: (30 °C) -3.01 ± 0.084; (37 °C) -2.02 ± 0.1. On the same counts, the results for CCUCAGCAAUAUUACGGCGG are -3.33 ± 0.15 and -3.35 ± 0.35. The matching figures for UAGAAGCAAUAUUACGAAGG: -2.9 ± 0.17 and -1.82 ± 0.39. On the same counts, the results for AACCAGCAAUAUUACGCGUG are -1.09 ± 0.057 and -0.149 ± 0.063.

Turning to CGUGAGCAAUAUUACGAAAA, the “self-splicing fitness (ln)” value (37 °C) was -2.88 ± 0.43. GUAAAGCAAUAUUACGAACG: the “self-splicing fitness (ln)” value (30 °C) was -0.437 ± 0.077 and the “self-splicing fitness (ln)” value (37 °C) is -0.132 ± 0.12. The matching figures for AACAAGCAAUAUUACGACAA: -1.28 ± 0.12 and -1.18 ± 0.098. The matching figures for AUCUAGCAAUAUUACGUUAA: -1.84 ± 0.23 and -1.82 ± 0.34. On the same counts, the results for CAUCAGCAAUAUUACGCGGG are -2.04 ± 0.13 and -0.735 ± 0.12. Consider CAUGAGCAAUAUUACGCACU, for which the “self-splicing fitness (ln)” value (37 °C) is -1.96 ± 0.24. With AACAAGCAAUAUUACGGUUA, the “self-splicing fitness (ln)” value (30 °C) was -0.694 ± 0.058 and the “self-splicing fitness (ln)” value (37 °C) was -0.134 ± 0.064.

Turning to GUUCAGCAAUAUUACGGCCU, the “self-splicing fitness (ln)” value is, setting by setting: (30 °C) -1.02 ± 0.2; (37 °C) -0.57 ± 0.24.
